B1: Lipr27RCL (Rhizopus microsporus var. chinensis) (protein)
chain: DTETVGGMTLDLPENPPPIPATSTAPSSDSGEVVTATAAQIKELTNYAGVAATAYCRSVVPGTKWDCKQCLKYVPDGKLIKTFTSLLTDTNGFILRSDAQKTIYVTFRGTNSFRSAITDMVFTFTDYSPVKGAKVHAGFLSSYNQVVKDYFPVVQDQLTAYPDYKVIVTGHSLGGAQALLAGMDLYQREKRLSPKNLSIYTVGCPRVGNNAFAYYVDSTGIPFHRTVHKRDIVPHVPPQAFGYLHPGVESWIKEDPADVQICTSNIETKQCSNSIVPFTSIADHLTYFGINEGSCL

Tests used:
[1] = system: CCCCCCCCCCCCCCCC(=O)Oc1ccc([N+](=O)[O-])cc1; test: p-nitrophenol release, Lineweaver-Burk; format: biochemical, Rhizopus microsporus; conditions: Tris-HCl pH 9, 37 °C, substrate 4-PNN [sic], 4-NPP in materials, apparent Km
Source text: (§1) p-nitrophenol release, Lineweaver-Burk on Lipr27RCL

[2] = substrate: CCCCCCCCCCCCCCCC(=O)Oc1ccc([N+](=O)[O-])cc1; test: p-nitrophenol release, Lineweaver-Burk; format: biochemical, Rhizopus microsporus; conditions: Tris-HCl pH 9, 37 °C, substrate 4-PNN [sic], 4-NPP in materials, apparent Km; remark: listed apart in the source
Source text: as §1

Molecule | Km [1] | Vmax [1] | kcat [1] | kcat/Km [1] | Km [2] | Vmax [2] | kcat [2] | kcat/Km [2]
Lipr27RCL (Rhizopus microsporus var. chinensis; D159T) | 380 ± 50 µM | 709 µmol/min/mg | 187 ± 16.3 s⁻¹ | 491000 M⁻¹ s⁻¹ |  |  |  | 
Lipr27RCL (Rhizopus microsporus var. chinensis; K157N) | 290 ± 90 µM | 588 µmol/min/mg | 185 ± 18.5 s⁻¹ | 637000 M⁻¹ s⁻¹ |  |  |  | 
Lipr27RCL (Rhizopus microsporus var. chinensis; K161T) | 290 ± 60 µM | 714 µmol/min/mg | 188 ± 13.7 s⁻¹ | 648000 M⁻¹ s⁻¹ |  |  |  | 
Lipr27RCL (Rhizopus microsporus var. chinensis; W158I) | 450 ± 40 µM | 500 µmol/min/mg | 132 ± 19.4 s⁻¹ | 292000 M⁻¹ s⁻¹ |  |  |  | 
B1 |  |  |  |  | 360 ± 60 µM | 714 µmol/min/mg | 188 ± 18.2 s⁻¹ | 522000 M⁻¹ s⁻¹

Source: publication PMC7063977, “Improving the Thermostability of Rhizopus chinensis Lipase Through Site-Directed Mutagenesis Based on B-Factor Analysis” (Frontiers in Microbiology, 2020)
